Series [1] in a line: whole-cell patch-clamp, maximum amplitude. Conditions: glycan lost; control: wild type. On the technique in general: Patch clamp records ionic current or voltage across a cell membrane.
Series [2] can be described thus: fluorometric membrane depolarization, maximal RFU. Conditions: glycan lost; control: wild type.
Series [3] can be described thus: ratio of WT-relative surface to WT-relative total expression. Conditions: glycan lost; control: wild type.
Series [4] can be described thus: fluorometric membrane depolarization, 23°C vs 37°C. The conditions noted are these: glycan lost; control: wild type (less sensitive at 23°C than at 37°C).
Series [5] can be described thus: whole-cell patch-clamp, 37°C. The conditions noted are these: glycan lost; control: wild type.
The nature of series [6]: anti-FLAG WB of cell lysates, normalized to total protein. The conditions noted are these: glycan lost; control: wild type.
A short description of series [7]: fluorometric membrane depolarization, FlexStation, 37°C. The conditions noted are these: glycan lost; control: wild type.

B1: hTRPA1: N747/753Q (protein)
parent chain: MKRSLRKMWRPGEKKEPQGVVYEDVPDDTEDFKESLKVVFEGSAYGLQNFNKQKKLKRCDDMDTFFLHYAAAEGQIELMEKITRDSSLEVLHEMDDYGNTPLHCAVEKNQIESVKFLLSRGANPNLRNFNMMAPLHIAVQGMNNEVMKVLLEHRTIDVNLEGENGNTAVIIACTTNNSEALQILLKKGAKPCKSNKWGCFPIHQAAFSGSKECMEIILRFGEEHGYSRQLHINFMNNGKATPLHLAVQNGDLEMIKMCLDNGAQIDPVEKGRCTAIHFAATQGATEIVKLMISSYSGSVDIVNTTDGCHETMLHRASLFDHHELADYLISVGADINKIDSEGRSPLILATASASWNIVNLLLSKGAQVDIKDNFGRNFLHLTVQQPYGLKNLRPEFMQMQQIKELVMDEDNDGCTPLHYACRQGGPGSVNNLLGFNVSIHSKSKDKKSPLHFAASYGRINTCQRLLQDISDTRLLNEGDLHGMTPLHLAAKNGHDKVVQLLLKKGALFLSDHNGWTALHHASMGGYTQTMKVILDTNLKCTDRLDEDGNTALHFAAREGHAKAVALLLSHNADIVLNKQQASFLHLALHNKRKEVVLTIIRSKRWDECLKIFSHNSPGNKCPITEMIEYLPECMKVLLDFCMLHSTEDKSCRDYYIEYNFKYLQCPLEFTKKTPTQDVIYEPLTALNAMVQNNRIELLNHPVCKEYLLMKWLAYGFRAHMMNLGSYCLGLIPMTILVVNIKPGMAFNSTGIINETSDHSEILDTTNSYLIKTCMILVFLSSIFGYCKEAGQIFQQKRNYFMDISNVLEWIIYTTGIIFVLPLFVEIPAHLQWQCGAIAVYFYWMNFLLYLQRFENCGIFIVMLEVILKTLLRSTVVFIFLLLAFGLSFYILLNLQDPFSSPLLSIIQTFSMMLGDINYRESFLEPYLRNELAHPVLSFAQLVSFTIFVPIVLMNLLIGLAVGDIAEVQKHASLKRIAMQVELHTSLEKKLPLWFLRKVDQKSTIVYPNKPRSGGMLFHIFCFLFCTGEIRQEIPNADKSLEMEILKQKYRLKDLTFLLEKQHELIKLIIQKMEIISETEDDDSHCSFQDRFKKEQMEQRNSRWNTVLRAVKAKTHHLEP
For B1, the “other: channel current” value in series [1] is “no change”. In series [2], the “other: maximal channel response, other: mean maximal RFU” value (“other: maximal channel response, other” below) was “no change, 866 vs 1155”. For the same protein, in series [3], the “localisation_or_trafficking, other: surface/total ratio relative to WT” value is “no change”. In addition, the “other: temperature dependence of agonist sensitivity, EC50” value (from here on “other: temperature dependence”) in series [4] is “changes, 14.8 vs 13.5”. Moreover, the “other: agonist sensitivity, EC50” value in series [5] was “decreases, 142.3 vs 35.0”; in series [7], “decreases, 20.9 vs 9.5”. Besides, the “expression_or_secretion, fold_change” value in series [6] is “decreases”.

B2: hTRPA1: N747Q (protein)
parent chain: MKRSLRKMWRPGEKKEPQGVVYEDVPDDTEDFKESLKVVFEGSAYGLQNFNKQKKLKRCDDMDTFFLHYAAAEGQIELMEKITRDSSLEVLHEMDDYGNTPLHCAVEKNQIESVKFLLSRGANPNLRNFNMMAPLHIAVQGMNNEVMKVLLEHRTIDVNLEGENGNTAVIIACTTNNSEALQILLKKGAKPCKSNKWGCFPIHQAAFSGSKECMEIILRFGEEHGYSRQLHINFMNNGKATPLHLAVQNGDLEMIKMCLDNGAQIDPVEKGRCTAIHFAATQGATEIVKLMISSYSGSVDIVNTTDGCHETMLHRASLFDHHELADYLISVGADINKIDSEGRSPLILATASASWNIVNLLLSKGAQVDIKDNFGRNFLHLTVQQPYGLKNLRPEFMQMQQIKELVMDEDNDGCTPLHYACRQGGPGSVNNLLGFNVSIHSKSKDKKSPLHFAASYGRINTCQRLLQDISDTRLLNEGDLHGMTPLHLAAKNGHDKVVQLLLKKGALFLSDHNGWTALHHASMGGYTQTMKVILDTNLKCTDRLDEDGNTALHFAAREGHAKAVALLLSHNADIVLNKQQASFLHLALHNKRKEVVLTIIRSKRWDECLKIFSHNSPGNKCPITEMIEYLPECMKVLLDFCMLHSTEDKSCRDYYIEYNFKYLQCPLEFTKKTPTQDVIYEPLTALNAMVQNNRIELLNHPVCKEYLLMKWLAYGFRAHMMNLGSYCLGLIPMTILVVNIKPGMAFNSTGIINETSDHSEILDTTNSYLIKTCMILVFLSSIFGYCKEAGQIFQQKRNYFMDISNVLEWIIYTTGIIFVLPLFVEIPAHLQWQCGAIAVYFYWMNFLLYLQRFENCGIFIVMLEVILKTLLRSTVVFIFLLLAFGLSFYILLNLQDPFSSPLLSIIQTFSMMLGDINYRESFLEPYLRNELAHPVLSFAQLVSFTIFVPIVLMNLLIGLAVGDIAEVQKHASLKRIAMQVELHTSLEKKLPLWFLRKVDQKSTIVYPNKPRSGGMLFHIFCFLFCTGEIRQEIPNADKSLEMEILKQKYRLKDLTFLLEKQHELIKLIIQKMEIISETEDDDSHCSFQDRFKKEQMEQRNSRWNTVLRAVKAKTHHLEP
Consider B2, for which the “other: channel current” value in series [1] is reported as “no change”. Moreover, the “other: maximal channel response, other” value in series [2] is reported as “no change, 947 vs 1155”. Also, in series [3], the “localisation_or_trafficking, other: surface/total ratio relative to WT” value is “increases”. Also, the “other: temperature dependence” value in series [4] was “changes, 18.2 vs 13.5”. The “other: agonist sensitivity, EC50” value in series [5] is reported as “decreases, 141.0 vs 35.0”. The “expression_or_secretion, fold_change” value in series [6] is “decreases”.

B3: hTRPA1: N753Q (protein)
parent chain: MKRSLRKMWRPGEKKEPQGVVYEDVPDDTEDFKESLKVVFEGSAYGLQNFNKQKKLKRCDDMDTFFLHYAAAEGQIELMEKITRDSSLEVLHEMDDYGNTPLHCAVEKNQIESVKFLLSRGANPNLRNFNMMAPLHIAVQGMNNEVMKVLLEHRTIDVNLEGENGNTAVIIACTTNNSEALQILLKKGAKPCKSNKWGCFPIHQAAFSGSKECMEIILRFGEEHGYSRQLHINFMNNGKATPLHLAVQNGDLEMIKMCLDNGAQIDPVEKGRCTAIHFAATQGATEIVKLMISSYSGSVDIVNTTDGCHETMLHRASLFDHHELADYLISVGADINKIDSEGRSPLILATASASWNIVNLLLSKGAQVDIKDNFGRNFLHLTVQQPYGLKNLRPEFMQMQQIKELVMDEDNDGCTPLHYACRQGGPGSVNNLLGFNVSIHSKSKDKKSPLHFAASYGRINTCQRLLQDISDTRLLNEGDLHGMTPLHLAAKNGHDKVVQLLLKKGALFLSDHNGWTALHHASMGGYTQTMKVILDTNLKCTDRLDEDGNTALHFAAREGHAKAVALLLSHNADIVLNKQQASFLHLALHNKRKEVVLTIIRSKRWDECLKIFSHNSPGNKCPITEMIEYLPECMKVLLDFCMLHSTEDKSCRDYYIEYNFKYLQCPLEFTKKTPTQDVIYEPLTALNAMVQNNRIELLNHPVCKEYLLMKWLAYGFRAHMMNLGSYCLGLIPMTILVVNIKPGMAFNSTGIINETSDHSEILDTTNSYLIKTCMILVFLSSIFGYCKEAGQIFQQKRNYFMDISNVLEWIIYTTGIIFVLPLFVEIPAHLQWQCGAIAVYFYWMNFLLYLQRFENCGIFIVMLEVILKTLLRSTVVFIFLLLAFGLSFYILLNLQDPFSSPLLSIIQTFSMMLGDINYRESFLEPYLRNELAHPVLSFAQLVSFTIFVPIVLMNLLIGLAVGDIAEVQKHASLKRIAMQVELHTSLEKKLPLWFLRKVDQKSTIVYPNKPRSGGMLFHIFCFLFCTGEIRQEIPNADKSLEMEILKQKYRLKDLTFLLEKQHELIKLIIQKMEIISETEDDDSHCSFQDRFKKEQMEQRNSRWNTVLRAVKAKTHHLEP
Turning to B3, the “other: channel current” value in series [1] is listed as “no change”. Also, the “other: maximal channel response, other” value in series [2] was “no change, 902 vs 1155”. Further, the “localisation_or_trafficking, other: surface/total ratio relative to WT” value in series [3] is “no change”. Besides, in series [4], the “other: temperature dependence” value is reported as “no change, 18.0 vs 13.5”. The “other: agonist sensitivity, EC50” value is reported as “no change, 42.0 vs 35.0” in series [5] and “no change, 10.5 vs 9.5” in series [7]. Moreover, the “expression_or_secretion, fold_change” value in series [6] is “decreases”.

The values are drawn from publication PMC5052711.
